Source: patent US7635557B2 (MND Diagnostic Ltd., priority 2003, dated 2009)
Ends that are not written are not given here.

molecular target: T1, Rhinovirus HRV14 3C protease (Human rhinovirus 14, UniProt P03303); format: biochemical; conditions: not given
T1 construct: the human rhinovirus 14 3C proteinase, cloned and expressed in E. coli; host or cells: E. coli
T1 sequence (P03303 1538-1719): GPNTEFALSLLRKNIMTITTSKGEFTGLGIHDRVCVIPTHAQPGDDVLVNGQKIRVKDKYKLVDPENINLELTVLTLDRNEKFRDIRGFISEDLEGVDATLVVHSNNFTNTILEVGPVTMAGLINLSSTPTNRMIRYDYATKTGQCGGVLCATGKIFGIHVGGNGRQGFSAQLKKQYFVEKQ

Row | Substance | best substrate chosen based on the reaction rates
1 | RPVVVQGPN | best peptide

molecular target: T1, Rhinovirus HRV14 3C protease; conditions: cited from earlier work

Row | Substance | Hydrolysis rate | Relative Hydrolysis rate
2 | KQYFVEKQGQVIAR [VIII] | 1 | 0.003
3 | YRPVVVQGPNTEF [VII] | 37 | 0.11
4 | SQTVALTEGLGDELEEY | 0 | 0.0005
5 | EAIAEEQGLSDYIT [II] | 8 | 0.024
6 | DSLETLFQGPVYK [I] | 355 | 1.00
7 | VPYIERQANDGWFRK [III] | 0 | 0.0005
8 | KLFAQTQGPYSGNP [VI] | 147 | 0.44

molecular target: T2, Human Rhinovirus serotype 1A 3C Protease (Human rhinovirus 1A, UniProt P23008); format: biochemical; conditions: not given
T2 construct: is used to clone the 3C Protease into the expression vector pET16-b; made in house; host or cells: E. coli BL21-DE3-pLys-S
T2 sequence (P23008 1515-1697 limits assumed): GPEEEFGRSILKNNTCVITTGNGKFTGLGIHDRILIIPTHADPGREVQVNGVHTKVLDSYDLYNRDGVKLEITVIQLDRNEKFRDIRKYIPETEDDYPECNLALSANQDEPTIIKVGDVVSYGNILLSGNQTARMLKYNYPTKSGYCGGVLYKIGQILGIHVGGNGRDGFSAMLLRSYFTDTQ

Row | Substance | Km [µM]
9 | MOC-Arg-Ala-Glu-Leu-Gln-Gly-Pro-Tyr-Asp-Lys-DNP-NH2 (RAELQGPYDK; not fully specified; MOC fluorochrome, DNP quencher, C-terminal amide; Human rhinovirus 1A; MOC; fluorochrome) [dimodified decapeptide substrate (7-methoxy coumarin-4-acetic acid fluorochrome and dinitrophenol quencher)] | 16.8
